± gives the uncertainty stated by the source.
Assay: self-splicing fitness, log relative to wild type (ln ratio); higher = more splicing; Tetrahymena group I intron in knt gene, E. coli kanamycin selection, DiMSum; sequences stand for … in CUCUCU…GGAGGGAAAAGUUAUCAGGCAUGCACCUGGUAGCUAGUCUUUAAACCAAUAGAUUGCAUCGGUUUAAAAGGCAAGACCGUCAAAUUGCGGGAAAGGGGUCAACAGCCGUUCAGUACCAAGUCUCAGGGGAAACUUUGAGAUGGCCUUGCAAAGGGUAUGGUAAUAAGCUGACGGACAUGGUCCUAACCACGCAGCCAAGUCCUAAGUCAACAGAUCUUCUGUUGAUAUGGAUGCAGUUCACAGACUAAAUGUCGGUCGGGGAAGAUGUAUUCUUCUCAUAAGAUAUAGUCGGACCUCUCCUUAAUGGGAGCUAGCGGAUGAAGUGAUGCAACACUGGAGCCGCUGGGAACUAAUUUGUAUGCGAAAGUAUAUUGAUUAGUUUUGGAGUACUCGUGGUCG
How it was run: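 Pooled colonies went to amplicon sequencing on an Illumina HiSeq 2500 after six replicate transformations. The plates were LB agar with 100 μg/mL carbenicillin, 50 μM IPTG and 0.2% rhamnose, with or without 25 μg/mL kanamycin, incubated overnight at 37°C or 30°C. The E. coli BL21(DE3) library had all eight P1ex-region intron nucleotides randomised, the intron placed in the knt kanamycin-resistance gene on pET-22b(+). DiMSum fitness is the error-weighted combination of replicate fold changes, kanamycin against none, normalised to wild type.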

Sequence	self-splicing fitness (ln) (30 °C)	self-splicing fitness (ln) (37 °C)
UCCGAGCAAUAUUACGGCAG	-3.55 ± 0.38	-1.44 ± 0.34
UCCGAGCAAUAUUACGGCCA	-0.297 ± 0.1	-0.233 ± 0.12
UCCGAGCAAUAUUACGGCCU	-3.24 ± 0.3	-2.33 ± 0.38
UCCGAGCAAUAUUACGGCUC	–	-0.168 ± 0.28
UCCGAGCAAUAUUACGUACA	-2.89 ± 0.33	–
UCCGAGCAAUAUUACGUACC	-2.2 ± 0.2	-1.93 ± 0.37
UCCGAGCAAUAUUACGUUAG	-3.14 ± 0.15	-2.56 ± 0.24
UCCUAGCAAUAUUACGAACA	-2.9 ± 0.29	-1.3 ± 0.22
UCCUAGCAAUAUUACGACAU	-3.634 ± 0.026	-2.16 ± 0.037
UCCUAGCAAUAUUACGACGG	-2.14 ± 0.13	-0.657 ± 0.14
UCCUAGCAAUAUUACGAGGC	-2.31 ± 0.13	-3.06 ± 0.26
UCCUAGCAAUAUUACGCCAA	-3.18 ± 0.28	-2.5 ± 0.25
UCCUAGCAAUAUUACGCUCU	-3.33 ± 0.3	-2.67 ± 0.3
UCCUAGCAAUAUUACGCUUA	-2.77 ± 0.23	-3.22 ± 0.35
UCCUAGCAAUAUUACGGAAA	-1.98 ± 0.23	-2.51 ± 0.29
UCCUAGCAAUAUUACGGCUU	-3.41 ± 0.15	-2.47 ± 0.2
UCCUAGCAAUAUUACGGGAC	-3.32 ± 0.22	-2.73 ± 0.2
UCCUAGCAAUAUUACGGUAA	-0.552 ± 0.12	-0.427 ± 0.11
UCCUAGCAAUAUUACGGUUU	-1.44 ± 0.083	-1.16 ± 0.12
UCCUAGCAAUAUUACGUACA	-2.45 ± 0.27	-0.735 ± 0.16
UCCUAGCAAUAUUACGUAGC	-3.05 ± 0.14	-2.23 ± 0.16
UCCUAGCAAUAUUACGUAUU	-4.31 ± 0.2	-2.48 ± 0.22
UCCUAGCAAUAUUACGUGUG	-2.41 ± 0.28	-2.47 ± 0.22
UCCUAGCAAUAUUACGUGUU	-3.7 ± 0.21	-2.94 ± 0.19
UCCUAGCAAUAUUACGUUGC	-3.64 ± 0.16	-2.74 ± 0.19

Sequence	self-splicing fitness (ln) (30 °C)	self-splicing fitness (ln) (37 °C)
UCCUAGCAAUAUUACGUUUA	-2.15 ± 0.18	-2.54 ± 0.23
UCGAAGCAAUAUUACGAAAU	–	-2.56 ± 0.41
UCGAAGCAAUAUUACGACAU	-3.755 ± 0.027	-2.29 ± 0.038
UCGAAGCAAUAUUACGAUAC	-3.33 ± 0.25	–
UCGAAGCAAUAUUACGAUGC	-2.65 ± 0.15	-1.92 ± 0.18
UCGAAGCAAUAUUACGCACG	-1.8 ± 0.14	-0.85 ± 0.14
UCGAAGCAAUAUUACGCACU	-2.62 ± 0.18	-0.962 ± 0.14
UCGAAGCAAUAUUACGCAGA	-2.28 ± 0.2	-2.85 ± 0.27
UCGAAGCAAUAUUACGCGAU	-3.31 ± 0.32	–
UCGAAGCAAUAUUACGCGCC	–	-1.49 ± 0.28
UCGAAGCAAUAUUACGCGUC	–	-0.484 ± 0.32
UCGAAGCAAUAUUACGCUCA	-2.11 ± 0.19	-0.861 ± 0.23
UCGAAGCAAUAUUACGGACU	-1.07 ± 0.11	0.0804 ± 0.13
UCGAAGCAAUAUUACGGAGA	-2.69 ± 0.24	-2.44 ± 0.32
UCGAAGCAAUAUUACGGAUG	-2.8 ± 0.13	-1.68 ± 0.11
UCGAAGCAAUAUUACGGGCA	-0.603 ± 0.094	-0.507 ± 0.1
UCGAAGCAAUAUUACGGUGA	-0.813 ± 0.077	0.158 ± 0.091
UCGAAGCAAUAUUACGUAAA	-1.72 ± 0.11	-0.804 ± 0.14
UCGAAGCAAUAUUACGUGCA	-0.485 ± 0.096	-0.214 ± 0.095
UCGAAGCAAUAUUACGUGGA	-2.29 ± 0.14	-2.46 ± 0.16
UCGAAGCAAUAUUACGUGUA	-2.47 ± 0.17	-1.71 ± 0.18
UCGAAGCAAUAUUACGUUUC	-1.9 ± 0.14	-3.66 ± 0.36
UCGAAGCAAUAUUACGUUUG	-2.67 ± 0.13	-1.88 ± 0.15
UCGCAGCAAUAUUACGAAUU	-4.07 ± 0.34	-2.75 ± 0.17
UCGCAGCAAUAUUACGACAU	-3.604 ± 0.025	-2.56 ± 0.037

Sequence	self-splicing fitness (ln) (30 °C)	self-splicing fitness (ln) (37 °C)
UCGCAGCAAUAUUACGAGUG	-1.48 ± 0.088	-0.719 ± 0.1
UCGCAGCAAUAUUACGAUAC	-3.52 ± 0.46	-2.76 ± 0.34
UCGCAGCAAUAUUACGAUGA	-0.691 ± 0.072	0.0326 ± 0.081
UCGCAGCAAUAUUACGAUGC	-3.73 ± 0.28	-1.64 ± 0.2
UCGCAGCAAUAUUACGAUUG	-3.66 ± 0.18	-1.9 ± 0.16
UCGCAGCAAUAUUACGCACA	-0.0778 ± 0.1	-0.131 ± 0.13
UCGCAGCAAUAUUACGCACC	-1.68 ± 0.27	-1.6 ± 0.38
UCGCAGCAAUAUUACGCAGA	-3.72 ± 0.29	-0.987 ± 0.12
UCGCAGCAAUAUUACGCCCG	-1.51 ± 0.35	–
UCGCAGCAAUAUUACGCGGU	-4.16 ± 0.24	-2.41 ± 0.28
UCGCAGCAAUAUUACGCUGA	-2.33 ± 0.21	-1.15 ± 0.14
UCGCAGCAAUAUUACGCUUA	-1.67 ± 0.12	-0.94 ± 0.09
UCGCAGCAAUAUUACGGACU	-2.14 ± 0.16	-0.513 ± 0.16
UCGCAGCAAUAUUACGGAUA	-2.58 ± 0.25	-2.44 ± 0.26
UCGCAGCAAUAUUACGGCGG	-3.41 ± 0.17	-2.28 ± 0.21
UCGCAGCAAUAUUACGGUUC	-3.65 ± 0.43	-1.66 ± 0.3
UCGCAGCAAUAUUACGUAUG	-1.83 ± 0.1	-2.02 ± 0.15
UCGCAGCAAUAUUACGUCAC	-3.57 ± 0.15	-2.85 ± 0.16
UCGCAGCAAUAUUACGUCCU	-1 ± 0.097	-0.105 ± 0.092
UCGCAGCAAUAUUACGUCUU	-1 ± 0.11	-0.165 ± 0.12
UCGCAGCAAUAUUACGUGCG	-4.06 ± 0.22	-3.23 ± 0.3
UCGCAGCAAUAUUACGUUAG	-2.74 ± 0.15	-1.63 ± 0.17
UCGCAGCAAUAUUACGUUCA	-0.883 ± 0.07	0.0196 ± 0.064
UCGGAGCAAUAUUACGAUUA	–	0.203 ± 0.28
UCGGAGCAAUAUUACGCUAC	-2.11 ± 0.34	–

Sequence	self-splicing fitness (ln) (30 °C)	self-splicing fitness (ln) (37 °C)
UCGGAGCAAUAUUACGCUCU	-2.27 ± 0.36	-1.68 ± 0.23
UCGGAGCAAUAUUACGCUGC	-3.04 ± 0.38	–
UCGGAGCAAUAUUACGGAAU	–	-2.38 ± 0.42
UCGGAGCAAUAUUACGGCUA	–	-1.32 ± 0.39
UCGGAGCAAUAUUACGGCUG	-2.33 ± 0.18	-1.5 ± 0.19
UCGGAGCAAUAUUACGGGAC	–	-1.99 ± 0.29
UCGGAGCAAUAUUACGGGCG	-1.37 ± 0.11	-1.39 ± 0.18
UCGGAGCAAUAUUACGGUGA	-1.82 ± 0.27	-1.05 ± 0.2
UCGGAGCAAUAUUACGUAAG	-2.77 ± 0.46	-1.39 ± 0.42
UCGGAGCAAUAUUACGUCCU	-1.79 ± 0.17	-0.83 ± 0.25
UCGGAGCAAUAUUACGUGGC	–	-1.95 ± 0.38
UCGGAGCAAUAUUACGUUCA	–	-2.2 ± 0.47
UCGGAGCAAUAUUACGUUGC	-2.44 ± 0.28	-1.78 ± 0.42
UCGGAGCAAUAUUACGUUGU	-3.7 ± 0.22	-1.93 ± 0.21
UCGUAGCAAUAUUACGAAGU	-3.58 ± 0.47	-3.06 ± 0.35
UCGUAGCAAUAUUACGAAUU	-3.74 ± 0.29	-3.57 ± 0.46
UCGUAGCAAUAUUACGAGAU	-4.2 ± 0.42	-2.6 ± 0.39
UCGUAGCAAUAUUACGCCGA	-0.812 ± 0.31	-2.03 ± 0.27
UCGUAGCAAUAUUACGCCUA	-0.658 ± 0.13	0.291 ± 0.11
UCGUAGCAAUAUUACGCGAU	-3.29 ± 0.24	-2.36 ± 0.28
UCGUAGCAAUAUUACGGAGA	-2.51 ± 0.18	-2.53 ± 0.27
UCGUAGCAAUAUUACGGAUA	-1.59 ± 0.34	-1.02 ± 0.28
UCGUAGCAAUAUUACGGCCA	-0.72 ± 0.13	-0.85 ± 0.16
UCGUAGCAAUAUUACGGGAG	-2.85 ± 0.2	-3.28 ± 0.25
UCGUAGCAAUAUUACGGUGA	-1.57 ± 0.096	-1.11 ± 0.1

Reference: the supplement of paper PMC7877785
